B1: BsUGT398 (Bacillus spizizenii str. W23) (protein)
chain: MKTVLILNFPAEGHVNPTLGITKAFADRGYDVHYISTEKYKERLEAVGATVHLHQDLLRTTPINIASPNGILDFLKIHIKTSLDILHIVKELSKSIQFDFVYYDKFGAGELVRDYLNIPGISSSASFLFGEEHLKILPLHPDSEVPLQLDKQCEDLLLEMKQNYGVSPENMVQFMNNKGELNVVYTSRYFQPESHRFGDEFLFIGPSFPKRAEKTDFPTDKLKDEKVIYISMGTVLDETEEFFNLCIDAFSDVKGKVVIAAGEKADLTKLKQAPENFIIASYVPQLEVLEQSDVFITHGGMNSVNEGIHFNVPLVVMPHDKDQPMVAQRLTELQAGYTVSKDHVTAQSLKHAVEEVLNNDRYKEGIQKINRSFQDCMNMEEVMERIDQFIEQRK
notes: recombinant purified, obtained from the authors' previous study; GT1 family

Key:
[1] = system: [H][C@@]12C[C@H](O)C3=C(C(=O)C[C@]4(C)[C@@]([H])([C@H](C)CC(=O)C[C@@H](C)C(=O)O)C[C@H](O)[C@@]34C)[C@@]1(C)CCC(=O)C2(C)C; test: purified protein; conditions: 10 mM UDP-glucose, 10 mM MgCl2, 50 mM Tris pH 8.0, 40 °C
From the text: UPLC of GAA-15-O-beta-glucoside formation, Michaelis-Menten nonlinear fit on BsUGT489

[2] = substrate: [H][C@@]12C[C@H](O)C3=C(C(=O)C[C@]4(C)[C@@]([H])([C@H](C)CC(=O)C[C@@H](C)C(=O)O)C[C@H](O)[C@@]34C)[C@@]1(C)CCC(=O)C2(C)C; test: UPLC of GAA-15-O-beta-glucoside formation, Michaelis-Menten nonlinear fit; type: biochemical, Bacillus spizizenii; conditions: 10 mM UDP-glucose, 10 mM MgCl2, 50 mM Tris pH 8.0, 40 °C
From the text: UPLC of GAA-15-O-beta-glucoside formation, Michaelis-Menten nonlinear fit on BsUGT398

Row | Molecule | Km [1] [µM] | kcat [1] [s⁻¹] | kcat/Km [1] [M⁻¹ s⁻¹] | Km [2] [µM] | kcat [2] [s⁻¹] | kcat/Km [2] [M⁻¹ s⁻¹]
1 | BsUGT489 (Bacillus spizizenii) | 793.96 ± 124.09 | 0.934 ± 0.0626 | 1180 ± 200 |  |  | 
2 | B1 |  |  |  | 90.71 ± 14.86 | 0.14 ± 0.0051 | 1540 ± 259
